System: thrombostasin (thrombin inhibitor of Haematobia irritans saliva; tested as whole serotonin-induced saliva)

bovine thrombin
rates of hydrolysis of chromogenic substrate S238 (2.5-100 µM) by bovine thrombin (250 pM) alone and in the presence of horn fly saliva (equivalent to 2 flies): it may be a competitive inhibitor, as its effect is diminished when substrate is unlimited (100 µM)
